Results: US20250163145A1 (SHIONOGI, published 2025)
Where a chain is given by its changes, count along the chain named. In names and notes the source's numbering stands. Where no end group is shown, it is not given here.

T1: epitope peptide Cys-CE3C long (also: biotin label, site not given here)
T1 peptide: CSVNVDKQPKYEYSL

B1: h15H11-65 (antibody, human IgG4 S228P, kappa, V domains shown)
VH: QVQLVQSGSELKKPGASVKVSCKASGYTFTDYNMHWVRQAPGRSLEWMGRINPKNGVILSNEKFKDRFVFSLDTSVSTAYLQISSLKAEDTAVYYCAPSYYGGDDDAYWGQGTLVTVSS
VL: DIVMTQSPDSLAVSLGERATINCRASDSVDNYGISFLNWFQQKPGQPPKLLIYAASSQGSGVPARFSGSGSGTDFTLTISSMQAEDVAMYYCQQSKEFPWTFGGGTKVEIKR
notes: hIgG4Pro/hIgK
B2: h15H11-60 (antibody, human IgG4 S228P, kappa, V domains shown)
VH: B1 VH
VL: B1 VL with A64D, M89V
notes: hIgG4Pro/hIgK
B3: h15H11-63 (antibody, human IgG4 S228P, kappa, V domains shown)
VH: B1 VH
VL: B1 VL with A64D, V87T, M89V
notes: hIgG4Pro/hIgK
B4: h15H11-56 (antibody, human IgG4 S228P, kappa, V domains shown)
VH: B1 VH
VL: B1 VL with D27E, L37M, A64D, S80N, S81P, M89V
notes: hIgG4Pro/hIgK
B5: h15H11-59 (antibody, human IgG4 S228P, kappa, V domains shown)
VH: B1 VH
VL: B1 VL with A64D, S80N, S81P, M89V
notes: hIgG4Pro/hIgK
B6: h15H11-57 (antibody, human IgG4 S228P, kappa, V domains shown)
VH: B1 VH
VL: B1 VL with D27E, L37M, A64D, M89V
notes: hIgG4Pro/hIgK
B7: h15H11-55 (antibody, human IgG4 S228P, kappa, V domains shown)
VH: B1 VH
VL: B1 VL with D27E, L37M, A64D
notes: hIgG4Pro/hIgK
B8: h15H11-62 (antibody, human IgG4 S228P, kappa, V domains shown)
VH: B1 VH
VL: B1 VL with A64D, Q83E, M89V
notes: hIgG4Pro/hIgK
B9: h15H11-58 (antibody, human IgG4 S228P, kappa, V domains shown)
VH: B1 VH
VL: B1 VL with A64D
notes: hIgG4Pro/hIgK
B10: h15H11-61 (antibody, human IgG4 S228P, kappa, V domains shown)
VH: B1 VH
VL: B1 VL with A64D, S80N, S81P, Q83E, V87T, M89N
notes: hIgG4Pro/hIgK
B11: h15H11-64 (antibody, human IgG4 S228P, kappa)
heavy: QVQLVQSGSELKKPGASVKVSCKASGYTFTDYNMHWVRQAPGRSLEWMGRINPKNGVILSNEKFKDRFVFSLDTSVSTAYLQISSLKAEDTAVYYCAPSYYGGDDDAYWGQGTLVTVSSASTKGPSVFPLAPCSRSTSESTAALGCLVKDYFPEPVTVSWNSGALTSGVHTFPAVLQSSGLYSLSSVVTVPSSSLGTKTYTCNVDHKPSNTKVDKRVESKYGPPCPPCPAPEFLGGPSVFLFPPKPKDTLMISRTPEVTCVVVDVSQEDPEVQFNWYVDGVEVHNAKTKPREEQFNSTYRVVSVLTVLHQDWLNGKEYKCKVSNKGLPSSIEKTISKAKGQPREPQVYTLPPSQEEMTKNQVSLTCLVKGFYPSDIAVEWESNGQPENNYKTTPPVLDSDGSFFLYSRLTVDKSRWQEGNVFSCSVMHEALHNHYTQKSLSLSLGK
light: DIVMTQSPDSLAVSLGERATINCRASDSVDNYGISFLNWFQQKPGQPPKLLIYAASSQGSGVPARFSGSGSGTDFTLTISSMQAEDVAVYYCQQSKEFPWTFGGGTKVEIKRTVAAPSVFIFPPSDEQLKSGTASVVCLLNNFYPREAKVQWKVDNALQSGNSQESVTEQDSKDSTYSLSSTLTLSKADYEKHKVYACEVTHQGLSSPVTKSFNRGEC
notes: hIgG4Pro/hIgK
B12: h15H11-67 (antibody, human IgG4 S228P, kappa)
heavy: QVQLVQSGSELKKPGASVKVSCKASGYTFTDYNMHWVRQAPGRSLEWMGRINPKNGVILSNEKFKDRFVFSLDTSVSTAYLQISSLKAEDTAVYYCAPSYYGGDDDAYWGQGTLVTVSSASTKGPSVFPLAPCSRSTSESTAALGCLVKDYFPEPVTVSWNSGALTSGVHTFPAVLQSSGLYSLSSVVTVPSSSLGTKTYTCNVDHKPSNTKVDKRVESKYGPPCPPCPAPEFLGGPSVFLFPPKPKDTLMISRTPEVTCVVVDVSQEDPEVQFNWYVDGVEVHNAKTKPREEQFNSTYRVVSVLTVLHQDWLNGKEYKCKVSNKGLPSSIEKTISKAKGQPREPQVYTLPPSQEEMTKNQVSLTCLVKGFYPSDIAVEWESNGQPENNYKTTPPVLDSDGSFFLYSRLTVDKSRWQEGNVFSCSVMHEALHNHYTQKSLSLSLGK
light: B11 light with M4L, D9A, E17Q
notes: hIgG4Pro/hIgK
B13: h15H11-66 (antibody, human IgG4 S228P, kappa)
heavy: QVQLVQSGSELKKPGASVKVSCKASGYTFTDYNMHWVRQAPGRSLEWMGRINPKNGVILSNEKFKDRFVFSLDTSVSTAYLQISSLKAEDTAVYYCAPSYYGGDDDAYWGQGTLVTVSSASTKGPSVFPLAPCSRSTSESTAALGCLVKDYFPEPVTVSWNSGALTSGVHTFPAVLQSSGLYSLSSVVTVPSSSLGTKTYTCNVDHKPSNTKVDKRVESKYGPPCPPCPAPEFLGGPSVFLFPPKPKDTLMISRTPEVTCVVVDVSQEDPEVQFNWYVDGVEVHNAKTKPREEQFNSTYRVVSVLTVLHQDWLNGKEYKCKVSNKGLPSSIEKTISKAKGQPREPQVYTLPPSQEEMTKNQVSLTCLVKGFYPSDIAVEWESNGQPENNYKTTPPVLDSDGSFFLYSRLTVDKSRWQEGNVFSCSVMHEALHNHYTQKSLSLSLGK
light: B11 light with M4L, D9A
notes: hIgG4Pro/hIgK
B14: h15H11-45 (antibody, human IgG4 S228P, kappa, V domains shown)
VH: B1 VH
VL: DIVLTQSPASLAVSPGQRATITCRASDSVDNYGISFLNWFQQKPGQPPKLLIYAASSQGSGVPARFSGSGSGTDFTLTINPMEAADTANYYCQQSKEFPWTFGGGTKVEIKR
notes: hIgG4Pro/hIgK
B15: h15H11-47 (antibody, human IgG4 S228P, kappa, V domains shown)
VH: B1 VH
VL: B14 VL with A85F
notes: hIgG4Pro/hIgK
B16: h15H11-53 (antibody, human IgG4 S228P, kappa, V domains shown)
VH: B1 VH
VL: B14 VL with A85G
notes: hIgG4Pro/hIgK
B17: h15H11-50 (antibody, human IgG4 S228P, kappa, V domains shown)
VH: B1 VH
VL: B14 VL with A85I
notes: hIgG4Pro/hIgK
B18: h15H11-54 (antibody, human IgG4 S228P, kappa, V domains shown)
VH: B1 VH
VL: B14 VL with A85N, D86P
notes: hIgG4Pro/hIgK
B19: h15H11-49 (antibody, human IgG4 S228P, kappa, V domains shown)
VH: B1 VH
VL: B14 VL with A85V
notes: hIgG4Pro/hIgK
B20: h15H11-52 (antibody, human IgG4 S228P, kappa, V domains shown)
VH: B1 VH
VL: B14 VL with A85R
notes: hIgG4Pro/hIgK
B21: h15H11-44 (antibody, human IgG4 S228P, kappa, V domains shown)
VH: B1 VH
VL: B14 VL with A85E
notes: hIgG4Pro/hIgK
B22: h15H11-48 (antibody, human IgG4 S228P, kappa, V domains shown)
VH: B1 VH
VL: B14 VL with A85L
notes: hIgG4Pro/hIgK
B23: h15H11-46 (antibody, human IgG4 S228P, kappa, V domains shown)
VH: B1 VH
VL: B14 VL with A85Q
notes: hIgG4Pro/hIgK
B24: h15H11-51 (antibody, human IgG4 S228P, kappa, V domains shown)
VH: B1 VH
VL: B14 VL with A85D
notes: hIgG4Pro/hIgK
B25: h15H11 heavy chain CDR mutant A101V (antibody, human IgG4 S228P, kappa, name in Kabat numbering, V domains shown)
VH: B1 VH with L59N, D104N, D105T, A107V
VL: B14 VL with D27E, L37M, A85N
notes: hIgG4Pro/hIgK
B26: h15H11 heavy chain CDR mutant M34L (antibody, human IgG4 S228P, kappa, name in Kabat numbering, V domains shown)
VH: B1 VH with M34L, L59N, D104N, D105T
VL: B14 VL with D27E, L37M, A85N
notes: hIgG4Pro/hIgK
B27: humanized 15H11 CDR graft IGKV4-1 / IGHV7-4-1 (R94P) (antibody, human IgG4 S228P, kappa, V domains shown)
VH: B1 VH with R43Q, S44G, L59N, D104N, D105T
VL: B1 VL with D27E, L37M, F40Y, A64D, M82L, M89V
notes: hIgG4Pro/hIgK
B28: humanized 15H11 CDR graft IGKV4-1 / IGHV1-46 (R94P) (antibody, human IgG4 S228P, kappa, V domains shown)
VH: QVQLVQSGAEVKKPGASVKVSCKASGYTFTDYNMHWVRQAPGQGLEWMGRINPKNGVINSNEKFKDRVTMTRDTSTSTVYMELSSLRSEDTAVYYCAPSYYGGNTDAYWGQGTLVTVSS
VL: B1 VL with D27E, L37M, F40Y, A64D, M82L, M89V
notes: hIgG4Pro/hIgK

Target: T1, epitope peptide Cys-CE3C long
Assay: competitive ELISA, unlabeled vs biotin-labeled peptide, antibody on anti-human IgG plate
Procedure: (§1) A diluted solution of the obtained recombinant humanized antibody, a biotin-labeled immunogen peptide, and Streptavidin-HRP (manufactured by PIERCE) were added to an anti-human IgG antibody-immobilized plate, and reacted overnight at 4° C. […] Next, a recombinant human antibody at the dilution rate, a biotin-labeled immunogen peptide, and Streptavidin-HRP (manufactured by PIERCE) were added. At the same time, a dilution series of unlabeled immunogenic peptide was added and reacted overnight at 4° C. After washing twice with ELISA wash buffer, TMB-Substrate Chromogen (manufactured by Thermo Fisher Scientific) was added to develop color, the reaction was stopped with an equal amount of 0.5N sulfuric acid, and the absorbance at 450 nm was measured. The concentration of the unlabeled peptide which attenuated the signal of the biotin-labeled peptide by half was defined as the affinity (IC50).
A mutant having the heavy chain variable region represented by IGHV7-4-1 Q43R, G44S, N58L, N100D, T100aD, R94P (SEQ ID NO: 33) and the light chain variable region represented by IGKV4-1 (SEQ ID NO: 18) produced in Example 3 was produced. New mutants (h15H11-55 to 67) were produced in which various mutations were introduced into the light chain human framework sequence of the produced mutants, and affinity evaluation was performed on the produced mutants by the method described in Example 5.

IC50	Binder
0.75 nM	B1
0.79 nM	B2
0.64 nM	B3
0.85 nM	B4
0.8 nM	B5
0.89 nM	B6
0.82 nM	B7
0.73 nM	B8
0.78 nM	B9
0.79 nM	B10
0.68 nM	B11
0.46 nM	B12
0.53 nM	B13

Target: T1, epitope peptide Cys-CE3C long
Assay: as above
Remark: another data set of the same source
Procedure: as §1
Mutants (h15H11-44 to 54) in which various mutations were introduced into the light chain human framework sequence of h15H11-2 (heavy chain variable region: IGHV7-4-1 Q43R, G44S, N58L, N100D, T100aD, R94P (SEQ ID NO: 33)/light chain variable region: IGKV7-3 E27D, M33L, Y36F, V78M (SEQ ID NO: 55)) produced in Example 7 were produced. Affinity evaluation was performed on the produced mutants by the method described in Example 5.

IC50	Binder
0.5 nM	B14
0.53 nM	B15
0.55 nM	B16
0.55 nM	B17
0.72 nM	B18
0.62 nM	B19
0.5 nM	B20
0.51 nM	B21
0.51 nM	B22
0.5 nM	B23
0.63 nM	B24

Target: T1, epitope peptide Cys-CE3C long
Assay: competitive ELISA (Example 5)
Procedure: as §1

Binder	binding result
B25	no binding (tested: below the detection limit)
B26	no binding (tested: below the detection limit)

Target: T1, epitope peptide Cys-CE3C long
Assay: ELISA, supernatant IgG on anti-human IgG plate, biotin-peptide + streptavidin-HRP; titer per unit IgG
Procedure: The amount of IgG in the supernatant was determined by the following method. To evaluate the amount of IgG in the supernatant, the culture supernatant was added to an anti-human IgG antibody (manufactured by Jackson) immobilized plate, after reacting at room temperature for 3 hours, washed twice with ELISA wash buffer, and HRP-labeled anti-human IgG antibody (manufactured by Jackson) was reacted at 4° C. overnight. After washing twice with ELISA wash buffer and developing color by adding TMB-Substrate Chromogen (manufactured by Thermo Fisher Scientific), the reaction was stopped with an equal volume of 0.5N sulfuric acid, and the absorbance at 450 nm was measured to calculate (A) the dilution factor of the culture supernatant at which the OD was 1.0.
The titer of IgG in the supernatant against the epitope peptide was determined by the following method. In order to evaluate the titer of IgG in the supernatant against epitope peptides, the culture supernatant was added to an anti-human IgG antibody (manufactured by Jackson) immobilized plate, reacted for 3 hours at room temperature, and then washed twice with ELISA wash buffer, and a biotin-labeled epitope peptide (Cys-CE3C long: SEQ ID NO: 13) and Streptavidin-HRP (manufactured by PIERCE) were added and reacted overnight at 4° C. After washing twice with ELISA wash buffer and developing color by adding TMB-Substrate Chromogen (manufactured by Thermo Fisher Scientific), the reaction was stopped with an equal volume of 0.5N sulfuric acid, the absorbance at 450 nm was measured to calculate (B) the dilution ratio of the culture supernatant at which the OD was 1.0.
The titer (ratio) against the epitope peptide (Cys-CE3C long: SEQ ID NO: 13) per unit IgG amount was calculated as (B)/(A).

(B)/(A) titer (ratio) against the epitope peptide per unit IgG amount	Binder
0.21	B27
0.13	B28
